Experimental findings from patent publication EP2848684A1 are described below.

The target of this assay is NifDK complex purified from Azotobacter vinelandii (Azotobacter vinelandii) (UniProt P07328). Description: cell-based or functional assay.
Chain of UniProt P07328 (P07328 2-492 limits assumed, chain 1 of 2): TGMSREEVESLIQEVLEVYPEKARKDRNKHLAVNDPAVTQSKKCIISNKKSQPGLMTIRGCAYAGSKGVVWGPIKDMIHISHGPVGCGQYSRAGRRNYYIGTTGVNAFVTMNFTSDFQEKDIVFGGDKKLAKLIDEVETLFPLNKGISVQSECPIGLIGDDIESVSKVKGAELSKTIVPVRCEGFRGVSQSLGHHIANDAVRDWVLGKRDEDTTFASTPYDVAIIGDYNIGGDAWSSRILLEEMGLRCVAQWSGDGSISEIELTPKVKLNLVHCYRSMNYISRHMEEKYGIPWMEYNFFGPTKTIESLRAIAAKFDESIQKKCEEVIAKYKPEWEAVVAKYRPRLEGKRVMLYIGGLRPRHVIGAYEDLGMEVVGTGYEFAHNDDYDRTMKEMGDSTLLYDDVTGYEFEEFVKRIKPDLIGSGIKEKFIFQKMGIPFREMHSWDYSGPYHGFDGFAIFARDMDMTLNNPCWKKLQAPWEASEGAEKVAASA
Chain of UniProt P07328 (P07329 2-523 limits assumed, chain 2 of 2, further chain): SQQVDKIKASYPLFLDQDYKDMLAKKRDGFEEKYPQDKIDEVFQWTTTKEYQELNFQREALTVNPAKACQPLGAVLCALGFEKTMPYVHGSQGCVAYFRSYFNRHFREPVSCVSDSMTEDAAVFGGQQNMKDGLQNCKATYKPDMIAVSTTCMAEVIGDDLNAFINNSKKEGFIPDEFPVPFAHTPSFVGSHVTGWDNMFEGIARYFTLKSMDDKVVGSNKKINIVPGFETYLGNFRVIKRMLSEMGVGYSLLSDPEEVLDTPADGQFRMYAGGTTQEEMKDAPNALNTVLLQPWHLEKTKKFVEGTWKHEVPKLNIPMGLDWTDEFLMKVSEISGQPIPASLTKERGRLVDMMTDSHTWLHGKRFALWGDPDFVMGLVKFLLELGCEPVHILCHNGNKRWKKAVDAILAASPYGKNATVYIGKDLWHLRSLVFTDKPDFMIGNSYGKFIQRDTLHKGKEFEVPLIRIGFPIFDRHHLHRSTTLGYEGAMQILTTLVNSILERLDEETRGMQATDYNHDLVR

Turning to “NifH protein purified from Azotobacter vinelandii (from UniProt P00459 2-290) (enzyme)”, the Ammonia stood at 179 nmol/mL and the RFU (Relative Fluorescence Units, ammonia detection) stood at 1300 RFU.
Taken in the same sequence, the figures for “NifH purified from recombinant Saccharomyces cerevisiae GF2 cells (mlsSOD2-his8-NifH, A. vinelandii NifH sequence) (from UniProt P00459 1-290) (enzyme)” were 200 nmol/mL and 1460 RFU.
